Experimental data published in patent publication US20220403392 (published 2022).
Numbering of substitutions follows the chain as printed.

B1: RA 5'3' + 5'3' fiber (mixed)
DNA 1: GGTTGGTGTGGTTGGTGGTTGGTGTGGTTGGTTTTCCCTTTAGGGAATGACCCTGAAGTTCATCTGCACCACCGAGGGAAATCCCTTTTTGGTTGGTGTGGTTGGTGGTTGGTGTGGTTGG
DNA 2: B1 DNA 1 with C36T, T39C, T41A, G43A, A46G, G76A, A79G, A81T, C83T, T86C
DNA 3: CGGTGGTGCAGATGAACTTCAGGGTCA
B2: RA 5' + 5' fiber (mixed)
DNA 1: GGTTGGTGTGGTTGGTGGTTGGTGTGGTTGGTTTTCCCTTTAGGGAATGACCCTGAAGTTCATCTGCACCACCGAGGGAAATCCCTT
DNA 2: B2 DNA 1 with C36T, T39C, T41A, G43A, A46G, G76A, A79G, A81T, C83T, T86C
DNA 3: CGGTGGTGCAGATGAACTTCAGGGTCA
B3: RA 5' + 3' fiber (mixed)
DNA 1: B2 DNA 1
DNA 2: TTCCCTAAAGGGATGACCCTGAAGTTCATCTGCACCACCGAAGGGATTTCCCTTTTGGTTGGTGTGGTTGGTGGTTGGTGTGGTTGG
DNA 3: CGGTGGTGCAGATGAACTTCAGGGTCA
B4: RA 3' + 3' fiber (mixed)
DNA 1: B3 DNA 2 with T2C, C5T, A7T, A9G, G12A, A42G, G45A, T47A, T49C, C52T
DNA 2: B3 DNA 2
DNA 3: CGGTGGTGCAGATGAACTTCAGGGTCA
B5: NU 3' + 5' fiber (mixed)
DNA 1: TCCCTTTAGGGAATGACCCTGAAGTTCATCTGCACCACCGAGGGAAATCCCTTTTTCGCCTAGGTTGGGTAGGGTGGTGGCG
DNA 2: CGCCTAGGTTGGGTAGGGTGGTGGCGTTTTTCCCTAAAGGGATGACCCTGAAGTTCATCTGCACCACCGAAGGGATTTCCCT
DNA 3: CGGTGGTGCAGATGAACTTCAGGGTCA

The binders below were run against thrombin (Homo sapiens, UniProt P00734;P00734 P00734:328-363,P00734:364-622) (assay: inhibition; TT, plasma alone 16.3 s; about 0.5 uM in human plasma, 37 C).

With B1 as the binder, how does the activity read?
The activity was over 60 s.

B2 was tested. Which activity did it give?
Its activity is over 60 s.

How did the activity turn out when B3 was run?
Its activity is over 60 s.

How did the activity turn out when B4 was run?
Its activity is over 60 s.

For B5, which activity is on record?
The activity was over 60 s.
